Laboratory results reported in US20230277628A1, “METHODS FOR PROMOTING ANTI-TUMOR IMMUNE RESPONSE IN A SUBJECT IN NEED THEREOF USING ENCAPSULATED INTERLEUKIN 12” (Spectrum Pharmaceuticals, Inc., priority 2022, published 2023).

B1: rmIL-12: mouse recombinant IL-12, unencapsulated control; 1 µg equivalent to mPCX12 1 mg (protein, UniProt P43431 23-215; P43432 23-335, looked up)
Interleukin-12 subunit alpha: RVIPVSGPARCLSQSRNLLKTTDDMVKTAREKLKHYSCTAEDIDHEDITRDQTSTLKTCLPLELHKNESCLATRETSSTTRGSCLPPQKTSLMMTLCLGSIYEDLKMYQTEFQAINAALQNHNHQQIILDKGMLVAIDELMQSLNHNGETLRQKPPVGEADPYRVKMKLCILLHAFSTRVVTINRVMGYLSSA
Interleukin-12 subunit beta: MWELEKDVYVVEVDWTPDAPGETVNLTCDTPEEDDITWTSDQRHGVIGSGKTLTITVKEFLDAGQYTCHKGGETLSHSHLLLHKKENGIWSTEILKNFKNKTFLKCEAPNYSGRFTCSWLVQRNMDLKFNIKSSSSSPDSRAVTCGMASLSAEKVTLDQRDYEKYSVSCQEDVTCPTAEETLPIELALEARQQNKYENYSTSFFIRDIIKPDPPKNLQMKPLKNSQVEVSWEYPDSWSTPHSYFSLKFFVRIQRKKEKMKETEEGCNQKGAFLVEKTSTEVQCKGGNVCVQAQDRYYNSSCSKWACVPCRVRS

Legend:
GL-261 glioma cells [1] = experiment: Survival in the GL-261 orthotopic murine glioma model; type: in vivo; settings: for # censored mice: n=22, Day 71
Procedure: (§1) In an orthotopic murine glioma model, C57B6 mice were inoculated with 3 × 10^5 GL-261 glioma cells in the frontal lobe via intracranial injection with drug treatment on Day 5. Mice were randomly assigned (n=22/group) to receive a single intratumoral dose of mPCX12 at 0.5, 0.75, and 1 mg, or mrIL-12 1 µg (equivalent to mPCX12 1 mg) or empty shells or vehicle. In addition, lomustine (6 mg/kg, QDx5 i.p.) was also assessed. […] At 1 mg mPCX12, tumor IL-12 and IFNy levels were 2069±631 and 646±8 pg/mg respectively on Day 3. […] At Day 90, 41%, 45%, and 55% of the animals that received doses of 0.5, 0.75 or 1 mg mPCX12, respectively, were alive with median survival >90 days (last day of study).
In a second study, GL-261 inoculated mice (n=22 per group) received a single dose of mPCX12 at 0.5, 0.75, and 1 mg. Control treatment groups were, mrIL-12, 0.5 and 1 µg (equivalent to mPCX12 0.5 and 1 mg) or empty shells (1 mg) or vehicle control intratumoral. In addition, lomustine (6 mg/kg, QDx5 i.p.) was also assessed. Day 71 was the last day of the study. Animals were euthanized when they became moribund.
PCX12 (1 mg) >50% of mice survived to the end of the study (Day 71) and were tumor-free.

GL-261 glioma cells [2] = test system: GL-261 glioma cells; design: species or system C57B6 mice; settings: mouse, in vivo
Procedure: as §1
In the first study, six days post GL-261 inoculation, a single dose of mPCX12 at 0.5, 0.75, and 1 mg was administered to 4 animals per timepoint (TP). Control treatment groups were, mrIL-12 1 µg (equivalent to mPCX12 1 mg) or empty shells. In addition, lomustine (6 mg/kg, QDx5 i.p.) was also assessed. At 3- and 7-days post drug administration, animals were euthanized, serum and tumor IL-12 and IFN-γ levels were determined via ELISA.
Low levels of IL-12 and IFN-γ observed in the systemic circulation of mPCX12 and mrIL-12 groups. FIGS. 1A-D: All values expressed as Mean +/- SEM; n=4 per timepoint; ND: Not Detected.

Row | Molecule | % alive at 71 Days Post Treatment (GL-261 glioma cells [1]; Lomustine 6 mg/kg QDx5 i.p.) | # censored mice (GL-261 glioma cells [1]; Lomustine 6 mg/kg QDx5 i.p.) | Median survival (GL-261 glioma cells [1]; Lomustine 6 mg/kg QDx5 i.p., study end Day 71) | Median survival (GL-261 glioma cells [1]; lomustine 6 mg/kg QDx5 i.p., text b126 (last day of study Day 90)) | IL-12 and IFNγ in the systemic circulation (GL-261 glioma cells [2]) | tumor IL-12 persistence by Day 7 (GL-261 glioma cells [2]) | Median survival (GL-261 glioma cells [1]; mrIL-12 1 µg intratumoral, text b126 (last day of study Day 90)) | % alive at 71 Days Post Treatment (GL-261 glioma cells [1]; rmIL-12 0.5 µg) | Median survival (GL-261 glioma cells [1]; rmIL-12 0.5 µg intratumoral, study end Day 71) | # censored mice (GL-261 glioma cells [1]; rmIL-12 0.5 µg) | % alive at 71 Days Post Treatment (GL-261 glioma cells [1]; rmIL-12 1 µg) | Median survival (GL-261 glioma cells [1]; rmIL-12 1 µg intratumoral, study end Day 71) | # censored mice (GL-261 glioma cells [1]; rmIL-12 1 µg)
1 | O=NN(CCCl)C(=O)NC1CCCCC1 [Lomustine, lomustine, reference compound] | 18% | 4 | 38 days | 20 days | – | – | – | – | – | – | – | – | –
2 | B1 | – | – | – | – | Low levels | returned to baseline | 37 days | 45% | 38 days | 10 | 41% | 37 days | 9
